In paper doi:10.1101/2024.03.12.584565 (bioRxiv, 2024):

Key:
Experiment in all cases: pull-down
[1] = biological target: T1, Flag-tagged Pds5b-WT, treated with Nek2a and Cdk1/2-cyclin A2 in vitro (human, UniProt Q9NTI5 1-1447)
T1 sequence: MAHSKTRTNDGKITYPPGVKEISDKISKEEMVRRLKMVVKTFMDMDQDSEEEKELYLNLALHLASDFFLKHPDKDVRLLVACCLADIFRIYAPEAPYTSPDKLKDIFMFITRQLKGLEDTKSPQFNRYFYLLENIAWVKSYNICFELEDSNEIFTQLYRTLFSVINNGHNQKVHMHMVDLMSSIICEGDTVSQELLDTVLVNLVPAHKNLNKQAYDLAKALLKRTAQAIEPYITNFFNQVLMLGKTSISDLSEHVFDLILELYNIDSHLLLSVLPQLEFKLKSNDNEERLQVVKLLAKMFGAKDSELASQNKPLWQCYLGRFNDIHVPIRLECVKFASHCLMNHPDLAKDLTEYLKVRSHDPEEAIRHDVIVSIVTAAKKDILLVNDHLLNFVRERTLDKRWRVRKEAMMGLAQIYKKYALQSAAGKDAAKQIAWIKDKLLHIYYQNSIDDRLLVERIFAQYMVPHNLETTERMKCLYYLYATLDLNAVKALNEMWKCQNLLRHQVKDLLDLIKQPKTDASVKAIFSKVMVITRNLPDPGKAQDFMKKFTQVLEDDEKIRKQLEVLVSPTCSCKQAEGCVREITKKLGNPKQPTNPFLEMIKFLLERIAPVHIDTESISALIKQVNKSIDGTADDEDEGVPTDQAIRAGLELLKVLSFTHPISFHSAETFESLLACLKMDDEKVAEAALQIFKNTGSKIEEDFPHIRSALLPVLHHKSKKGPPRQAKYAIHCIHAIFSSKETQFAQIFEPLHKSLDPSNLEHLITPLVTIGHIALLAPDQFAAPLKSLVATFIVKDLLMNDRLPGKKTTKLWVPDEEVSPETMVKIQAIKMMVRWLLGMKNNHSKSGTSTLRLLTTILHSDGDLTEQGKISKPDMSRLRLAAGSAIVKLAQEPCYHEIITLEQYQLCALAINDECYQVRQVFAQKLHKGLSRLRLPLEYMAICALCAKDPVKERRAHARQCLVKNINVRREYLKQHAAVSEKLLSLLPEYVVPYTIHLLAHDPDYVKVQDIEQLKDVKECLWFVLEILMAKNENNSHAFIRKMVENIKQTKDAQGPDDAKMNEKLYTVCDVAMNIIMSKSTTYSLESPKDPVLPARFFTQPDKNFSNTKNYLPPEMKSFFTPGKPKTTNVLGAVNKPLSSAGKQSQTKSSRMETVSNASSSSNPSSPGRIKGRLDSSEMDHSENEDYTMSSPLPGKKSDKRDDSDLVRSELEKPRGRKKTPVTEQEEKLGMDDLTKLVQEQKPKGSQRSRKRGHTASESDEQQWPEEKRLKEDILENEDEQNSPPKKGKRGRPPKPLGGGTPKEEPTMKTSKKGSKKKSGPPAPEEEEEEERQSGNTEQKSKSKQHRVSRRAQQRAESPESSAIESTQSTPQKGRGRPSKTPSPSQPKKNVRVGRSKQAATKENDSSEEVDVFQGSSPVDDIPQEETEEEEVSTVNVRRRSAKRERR

[2] = biological target: T2, Flag-tagged Pds5b-Ser1161,1166Ala (2A), phosphorylated by Nek2a in vitro (human, UniProt Q9NTI5 1-1447, Ser1161,1166Ala | Ser1161,1166Ala)
T2 sequence: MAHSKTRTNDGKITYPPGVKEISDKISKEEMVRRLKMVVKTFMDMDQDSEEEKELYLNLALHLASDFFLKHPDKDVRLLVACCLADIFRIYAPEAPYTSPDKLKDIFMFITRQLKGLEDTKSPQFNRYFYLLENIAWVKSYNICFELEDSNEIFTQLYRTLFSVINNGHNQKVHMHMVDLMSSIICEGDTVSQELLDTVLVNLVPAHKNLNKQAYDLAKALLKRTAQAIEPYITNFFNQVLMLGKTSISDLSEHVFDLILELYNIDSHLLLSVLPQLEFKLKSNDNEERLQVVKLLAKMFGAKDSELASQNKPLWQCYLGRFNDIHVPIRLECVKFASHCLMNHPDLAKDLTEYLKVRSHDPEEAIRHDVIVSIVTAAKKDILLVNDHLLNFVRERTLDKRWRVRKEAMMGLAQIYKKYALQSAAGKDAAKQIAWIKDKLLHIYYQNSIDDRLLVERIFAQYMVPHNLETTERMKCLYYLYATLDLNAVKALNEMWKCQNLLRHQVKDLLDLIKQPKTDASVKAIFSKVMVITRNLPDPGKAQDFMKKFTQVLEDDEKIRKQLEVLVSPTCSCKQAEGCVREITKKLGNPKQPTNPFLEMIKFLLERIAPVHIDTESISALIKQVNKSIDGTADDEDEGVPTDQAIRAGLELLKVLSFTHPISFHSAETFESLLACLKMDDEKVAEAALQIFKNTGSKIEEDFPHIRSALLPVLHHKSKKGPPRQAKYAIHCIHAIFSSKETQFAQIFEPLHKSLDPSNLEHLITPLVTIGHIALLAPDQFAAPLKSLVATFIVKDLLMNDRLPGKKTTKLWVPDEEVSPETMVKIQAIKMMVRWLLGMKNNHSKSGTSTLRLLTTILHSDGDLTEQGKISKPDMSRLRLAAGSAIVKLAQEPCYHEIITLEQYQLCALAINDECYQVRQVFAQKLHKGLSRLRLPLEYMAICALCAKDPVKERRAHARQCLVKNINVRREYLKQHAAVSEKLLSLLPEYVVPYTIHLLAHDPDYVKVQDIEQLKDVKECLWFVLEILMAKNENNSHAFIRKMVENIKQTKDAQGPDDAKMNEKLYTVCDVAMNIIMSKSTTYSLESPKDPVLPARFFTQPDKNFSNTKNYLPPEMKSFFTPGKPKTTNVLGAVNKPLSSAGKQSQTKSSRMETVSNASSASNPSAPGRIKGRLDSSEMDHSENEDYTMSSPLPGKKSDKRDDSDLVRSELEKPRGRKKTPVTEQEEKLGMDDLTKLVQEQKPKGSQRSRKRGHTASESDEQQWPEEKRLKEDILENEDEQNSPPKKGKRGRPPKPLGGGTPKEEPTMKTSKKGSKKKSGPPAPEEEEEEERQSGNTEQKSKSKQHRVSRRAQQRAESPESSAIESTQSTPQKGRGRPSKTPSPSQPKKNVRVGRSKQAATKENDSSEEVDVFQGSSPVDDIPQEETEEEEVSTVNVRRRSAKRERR

[3] = biological target: T3, Flag-tagged Pds5b, co-expressed with Nek2aΔMR (human, UniProt Q9NTI5 1-1447)
T3 sequence: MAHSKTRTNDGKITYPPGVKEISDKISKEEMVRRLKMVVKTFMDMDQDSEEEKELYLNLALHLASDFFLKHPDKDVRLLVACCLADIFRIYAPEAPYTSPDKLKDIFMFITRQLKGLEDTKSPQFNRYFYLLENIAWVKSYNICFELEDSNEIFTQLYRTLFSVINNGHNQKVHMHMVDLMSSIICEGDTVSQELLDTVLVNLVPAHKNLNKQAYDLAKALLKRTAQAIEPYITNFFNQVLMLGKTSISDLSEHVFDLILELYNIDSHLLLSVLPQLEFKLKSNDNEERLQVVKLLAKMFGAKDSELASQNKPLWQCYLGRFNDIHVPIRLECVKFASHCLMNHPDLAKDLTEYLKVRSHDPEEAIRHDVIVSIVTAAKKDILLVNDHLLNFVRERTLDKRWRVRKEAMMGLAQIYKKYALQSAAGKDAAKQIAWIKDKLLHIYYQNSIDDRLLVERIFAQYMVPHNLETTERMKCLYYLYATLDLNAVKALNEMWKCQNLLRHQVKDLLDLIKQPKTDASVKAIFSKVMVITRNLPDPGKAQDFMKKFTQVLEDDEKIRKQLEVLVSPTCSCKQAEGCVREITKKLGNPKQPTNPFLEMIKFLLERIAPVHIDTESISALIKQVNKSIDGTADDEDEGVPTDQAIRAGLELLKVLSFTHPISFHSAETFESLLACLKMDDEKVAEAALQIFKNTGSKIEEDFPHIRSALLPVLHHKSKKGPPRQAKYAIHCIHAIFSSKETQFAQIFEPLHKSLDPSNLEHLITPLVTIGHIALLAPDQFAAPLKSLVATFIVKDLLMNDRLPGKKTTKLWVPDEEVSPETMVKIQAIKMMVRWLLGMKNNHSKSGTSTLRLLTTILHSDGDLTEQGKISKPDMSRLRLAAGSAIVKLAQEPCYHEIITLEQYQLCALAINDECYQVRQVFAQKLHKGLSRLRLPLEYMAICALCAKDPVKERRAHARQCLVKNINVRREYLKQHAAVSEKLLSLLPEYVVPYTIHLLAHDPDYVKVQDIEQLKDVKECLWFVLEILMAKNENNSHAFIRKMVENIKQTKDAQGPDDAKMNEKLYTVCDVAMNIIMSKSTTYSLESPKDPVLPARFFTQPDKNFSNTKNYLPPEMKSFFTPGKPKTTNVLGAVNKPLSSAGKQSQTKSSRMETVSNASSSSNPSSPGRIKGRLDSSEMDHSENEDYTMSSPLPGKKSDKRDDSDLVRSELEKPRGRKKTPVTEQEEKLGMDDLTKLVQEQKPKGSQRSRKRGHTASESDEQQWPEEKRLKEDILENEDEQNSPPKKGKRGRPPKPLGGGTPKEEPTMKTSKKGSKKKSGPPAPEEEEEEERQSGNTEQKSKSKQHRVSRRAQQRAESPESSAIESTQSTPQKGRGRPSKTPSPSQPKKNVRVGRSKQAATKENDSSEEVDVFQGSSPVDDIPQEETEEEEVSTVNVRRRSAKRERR

Measured: binding result

B1: recombinant human Wapl (natural protein)
chain: MTSRFGKTYSRKGGNGSSKFDEVFSNKRTTLSTKWGETTFMAKLGQKRPNFKPDIQEIPKKPKVEEESTGDPFGFDSDDESLPVSSKNLAQVKCSSYSESSEAAQLEEVTSVLEANSKISHVVVEDTVVSDKCFPLEDTLLGKEKSTNRIVEDDASISSCNKLITSDKVENFHEEHEKNSHHIHKNADDSTKKPNAETTVASEIKETNDTWNSQFGKRPESPSEISPIKGSVRTGLFEWDNDFEDIRSEDCILSLDSDPLLEMKDDDFKNRLENLNEAIEEDIVQSVLRPTNCRTYCRANKTKSSQGASNFDKLMDGTSQALAKANSESSKDGLNQAKKGGVSCGTSFRGTVGRTRDYTVLHPSCLSVCNVTIQDTMERSMDEFTASTPADLGEAGRLRKKADIATSKTTTRFRPSNTKSKKDVKLEFFGFEDHETGGDEGGSGSSNYKIKYFGFDDLSESEDDEDDDCQVERKTSKKRTKTAPSPSLQPPPESNDNSQDSQSGTNNAENLDFTEDLPGVPESVKKPINKQGDKSKENTRKIFSGPKRSPTKAVYNARHWNHPDSEELPGPPVVKPQSVTVRLSSKEPNQKDDGVFKAPAPPSKVIKTVTIPTQPYQDIVTALKCRREDKELYTVVQHVKHFNDVVEFGENQEFTDDIEYLLSGLKSTQPLNTRCLSVISLATKCAMPSFRMHLRAHGMVAMVFKTLDDSQHHQNLSLCTAALMYILSRDRLNMDLDRASLDLMIRLLELEQDASSAKLLNEKDMNKIKEKIRRLCETVHNKHLDLENITTGHLAMETLLSLTSKRAGDWFKEELRLLGGLDHIVDKVKECVDHLSRDEDEEKLVASLWGAERCLRVLESVTVHNPENQSYLIAYKDSQLIVSSAKALQHCEELIQQYNRAEDSICLADSKPLPHQNVTNHVGKAVEDCMRAIIGVLLNLTNDNEWGSTKTGEQDGLIGTALNCVLQVPKYLPQEQRFDIRVLGLGLLINLVEYSARNRHCLVNMETSCSFDSSICSGEGDDSLRIGGQVHAVQALVQLFLERERAAQLAESKTDELIKDAPTTQHDKSGEWQETSGEIQWVSTEKTDGTEEKHKKEEEDEELDLNKALQHAGKHMEDCIVASYTALLLGCLCQESPINVTTVREYLPEGDFSIMTEMLKKFLSFMNLTCAVGTTGQKSISRVIEYLEHC
binds: [1] | [2] | [3]
